“And” between values parts separate entries of the source, which are not always exact repeats. Equal entries are not always repeated.
Columns and labels:
human CCR8 (human) [1] = target: human CCR8 (human) (UniProt P51685); test: flow cytometry, primary human Tregs (PBMC, CD4+CD25+CD127- gate)
[2] = target: cynomolgus monkey CCR8 (comprising threonine at position four) (cynomolgus monkey); test: flow cytometry, primary cynomolgus Tregs (PBMC, CD4+CD25+CD127- gate)
[3] = target: P_1-12 construct (truncated N-terminal peptide of human CCR8 fused to V5 tag, chicken albumin, FLAG tag, BAP and H3G) (human); test: flow cytometry, construct on streptavidin beads
[4] = target: P_1-35 construct (full-length N-terminal peptide of human CCR8 fused to V5 tag, chicken albumin, FLAG tag, BAP and H3G) (human); test: flow cytometry, construct on streptavidin beads
P_1-35 construct (full-length N-terminal peptide of human CCR8 fused to V5 tag, chicken albumin, FLAG tag, BAP and H3G) (human), sequence (chain, as listed by the source): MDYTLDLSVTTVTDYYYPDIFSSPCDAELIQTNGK

[5] = target: P_13-24 construct (truncated N-terminal peptide of human CCR8 fused to V5 tag, chicken albumin, FLAG tag, BAP and H3G) (human); test: flow cytometry, construct on streptavidin beads
[6] = target: P_19-30 construct (truncated N-terminal peptide of human CCR8 fused to V5 tag, chicken albumin, FLAG tag, BAP and H3G) (human); test: flow cytometry, construct on streptavidin beads
[7] = target: T1, P_25-35 construct (truncated N-terminal peptide of human CCR8 fused to V5 tag, chicken albumin, FLAG tag, BAP and H3G) (human); test: flow cytometry, construct on streptavidin beads
T1 sequence (chain, biotinylated in vivo at BAP): CDAELIQTNGK

[8] = target: P_7-18 construct (truncated N-terminal peptide of human CCR8 fused to V5 tag, chicken albumin, FLAG tag, BAP and H3G) (human); test: flow cytometry, construct on streptavidin beads
murine CCR8 (murine) = murine CCR8 (murine) (UniProt P56484); test: flow cytometry, HEK293T transfectants, 5 ug/mL
murine CCR8 (murine), sequence (P56484 whole entry): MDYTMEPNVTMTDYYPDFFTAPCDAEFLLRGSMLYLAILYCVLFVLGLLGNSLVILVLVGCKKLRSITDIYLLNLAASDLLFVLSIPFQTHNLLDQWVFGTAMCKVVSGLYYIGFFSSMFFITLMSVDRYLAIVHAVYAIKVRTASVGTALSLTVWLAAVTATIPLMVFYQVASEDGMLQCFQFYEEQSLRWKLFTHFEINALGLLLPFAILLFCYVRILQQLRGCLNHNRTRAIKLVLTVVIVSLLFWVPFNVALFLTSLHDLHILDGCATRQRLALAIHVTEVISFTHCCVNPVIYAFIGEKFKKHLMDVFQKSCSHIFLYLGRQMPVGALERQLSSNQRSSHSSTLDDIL

rat CCR8 (rat) = test: flow cytometry, HEK293T transfectants, 5 ug/mL
rat CCR8 (rat), sequence (P56484 other isoform, or with tags, fused parts or gaps): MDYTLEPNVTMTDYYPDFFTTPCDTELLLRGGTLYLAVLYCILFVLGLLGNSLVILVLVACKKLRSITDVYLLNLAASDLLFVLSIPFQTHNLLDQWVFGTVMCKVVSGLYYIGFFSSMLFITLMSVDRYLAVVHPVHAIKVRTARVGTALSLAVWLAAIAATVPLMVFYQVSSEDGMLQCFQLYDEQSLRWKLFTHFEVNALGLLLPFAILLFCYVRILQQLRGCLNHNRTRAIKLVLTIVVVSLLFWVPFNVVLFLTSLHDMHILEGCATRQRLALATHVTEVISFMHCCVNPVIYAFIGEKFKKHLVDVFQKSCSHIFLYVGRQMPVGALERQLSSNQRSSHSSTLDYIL

[9] = target: cynomolgus monkey CCR8 (comprising threonine at position four) (cynomolgus monkey); test: flow cytometry, primary cynomolgus Tregs, purified antibody 20 ug/ml
human CCR8 (human) [10] = target: human CCR8 (human) (UniProt P51685); test: flow cytometry, HuT78 cells, 5 ug/mL
[11] = target: human CCR8 with an A27G point mutation (human) (UniProt P51685); test: flow cytometry, HEK293T transfectants, 5 ug/mL
human CCR8 with an A27G point mutation (human), sequence (P51685 whole entry A27G): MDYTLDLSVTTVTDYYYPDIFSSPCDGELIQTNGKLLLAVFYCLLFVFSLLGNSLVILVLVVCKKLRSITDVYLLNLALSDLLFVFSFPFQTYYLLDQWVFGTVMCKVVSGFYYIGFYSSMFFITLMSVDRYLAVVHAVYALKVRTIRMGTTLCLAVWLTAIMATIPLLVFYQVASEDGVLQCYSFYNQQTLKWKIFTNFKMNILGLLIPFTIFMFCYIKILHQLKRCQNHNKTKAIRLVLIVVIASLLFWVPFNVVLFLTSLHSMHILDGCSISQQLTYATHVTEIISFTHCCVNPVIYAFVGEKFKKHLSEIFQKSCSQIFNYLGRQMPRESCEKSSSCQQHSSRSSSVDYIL

anti-human CCR8 antibody clone 433H (BD 747578), sequence (VH): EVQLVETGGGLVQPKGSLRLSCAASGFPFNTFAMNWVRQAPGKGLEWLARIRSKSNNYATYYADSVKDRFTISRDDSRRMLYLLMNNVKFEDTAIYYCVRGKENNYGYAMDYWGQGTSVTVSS
anti-human CCR8 antibody clone 433H (BD 747578), sequence (VL): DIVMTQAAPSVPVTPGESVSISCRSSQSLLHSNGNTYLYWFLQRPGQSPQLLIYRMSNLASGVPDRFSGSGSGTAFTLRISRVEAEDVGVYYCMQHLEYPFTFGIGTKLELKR
human CCR8 (human), sequence (P51685 whole entry): as the sequence (P51685 whole entry A27G) above, with G27A counted along it
cynomolgus monkey CCR8 (comprising threonine at position four) (cynomolgus monkey), sequence (O97665 other isoform, or with tags, fused parts or gaps): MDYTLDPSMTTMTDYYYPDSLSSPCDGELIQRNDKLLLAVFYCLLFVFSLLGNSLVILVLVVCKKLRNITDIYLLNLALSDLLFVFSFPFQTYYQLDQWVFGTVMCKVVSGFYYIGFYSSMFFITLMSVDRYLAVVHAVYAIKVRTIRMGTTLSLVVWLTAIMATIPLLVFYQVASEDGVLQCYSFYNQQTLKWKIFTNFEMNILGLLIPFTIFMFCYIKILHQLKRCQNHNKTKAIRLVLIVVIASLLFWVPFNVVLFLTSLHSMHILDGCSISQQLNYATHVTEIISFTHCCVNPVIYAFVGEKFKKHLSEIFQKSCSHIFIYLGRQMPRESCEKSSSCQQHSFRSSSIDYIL

Substance | CCR8+CD127-CD25+CD4, % positive (human CCR8 (human) [1]) | CCR8+CD127-CD25+CD4, % positive [2] | Median Fluorescence of Sample/Median Fluorescence of Negative Control [3] | Median Fluorescence of Sample/Median Fluorescence of Negative Control [4] | Median Fluorescence of Sample/Median Fluorescence of Negative Control [5] | Median Fluorescence of Sample/Median Fluorescence of Negative Control [6] | Median Fluorescence of Sample/Median Fluorescence of Negative Control [7] | Median Fluorescence of Sample/Median Fluorescence of Negative Control [8] | binding by FACS (read-out not named) (murine CCR8 (murine)) | binding by FACS (read-out not named) (rat CCR8 (rat)) | CCR8+CD127-CD25+CD4, % positive [9] | binding by FACS (read-out not named) (human CCR8 (human) [10]) | binding by FACS (read-out not named) [11]
Cyno IgG2a (antibody) | 0% and 0.1% | 0.3% and 0.8% |  |  |  |  |  |  |  |  |  |  | 
SA214G2 (antibody) |  |  |  |  |  |  |  |  | 56800 | 1590 |  |  | 
anti-FLAG antibody (clone M2, Sigma F3165/F1804) |  |  | 596 | 522 | 628 | 590 | 582 | 589 |  |  |  |  | 
anti-V5 antibody (clone SV5-Pk1; AbD Serotec, MCA 1360) |  |  | 1090 | 953 | 1300 | 1020 | 1090 | 1090 |  |  |  |  | 
anti-human CCR8 antibody clone 433H (BD 747578) |  |  | 0.9 | 290 | 300 | 0.9 | 0.9 | 0.9 |  |  | 66.2% and 63.7% |  | 

Further lines, results first:

CCR8+CD127-CD25+CD4, % positive (human CCR8 (human) [1]) | CCR8+CD127-CD25+CD4, % positive [2] | Median Fluorescence of Sample/Median Fluorescence of Negative Control [3] | Median Fluorescence of Sample/Median Fluorescence of Negative Control [4] | Median Fluorescence of Sample/Median Fluorescence of Negative Control [5] | Median Fluorescence of Sample/Median Fluorescence of Negative Control [6] | Median Fluorescence of Sample/Median Fluorescence of Negative Control [7] | Median Fluorescence of Sample/Median Fluorescence of Negative Control [8] | binding by FACS (read-out not named) (murine CCR8 (murine)) | binding by FACS (read-out not named) (rat CCR8 (rat)) | CCR8+CD127-CD25+CD4, % positive [9] | binding by FACS (read-out not named) (human CCR8 (human) [10]) | binding by FACS (read-out not named) [11] | Substance
1.5% and 0% and 1.9% | 11.9% and 11.3% |  |  |  |  |  |  |  |  |  |  |  | Hu IgG2b (antibody)
 |  | 1 | 1 | 1 | 1 | 1.1 | 1 |  |  |  |  |  | Negative control (Table 6)
 |  | 0.9 | 751 | 285 | 0.9 | 0.9 | 0.9 |  |  |  | 4500 | 41400 | anti-human CCR8 antibody clone L263G8 (BioLegend, 360602)
